Experimental findings from patent publication US11542480B2 are described below.

Substrate in data set [1]: NCC(=O)O
As to the kind of experiment: purified protein, by the assay type. Format: biochemical, Geobacillus kaustophilus HTA426. The note with it: other: substrate glycine, 37° C., pyrophosphate, pH 8.5, WT-GOX, 60.0 °C. An excerpt: HTA426 is available, for example, from the National Research and Development Agency, RIKEN BioResource Research Center (RIKEN BRC) Microbe Division (JCM) (JCM12893).
However, a plasmid vector of pET-15b was used as a vector, and E. coli BL21 (DE3) was used as a host cell (host).
For convenience of explanation, the wild-type glycine oxidase is abbreviated as “WT-GOX”.

Substrate in data set [2]: NCC(=O)O
As to the kind of experiment: purified protein, by the assay type. Type of data set: biochemical, Geobacillus kaustophilus HTA426. The note with it: other: substrate glycine, 37° C., pyrophosphate, pH 8.5, purified V-GOX1, 70.0 °C. The protocol:
For convenience of explanation, the mutant glycine oxidase is abbreviated as “V-GOX” in this example.
The enzyme activity in Table 2 is shown as the ratio (times) of the enzyme reaction rate (use of crude enzyme solution) of V-GOX when WT-GOX is used as reference (1).
Therefore, after purifying this V-GOX1, the molecular weight (SDS-PAGE), the optimum temperature, the optimum pH, thermal stability, pH stability, the specific activity, and the kinetic constant Km were evaluated. The results of the specific activity, thermal stability, and the kinetic constant Km are shown in Table 1 above, the specific activity is shown in FIG. 3A, and thermal stability is shown in FIG. 3B, and further, evaluation results of enzyme properties of V-GOX1 containing them are also shown in Table 3 together with the conditions.

B1: Geobacillus kaustophilus HTA426 wild-type glycine oxidase (WT-GOX), SEQ ID NO: 1 (Geobacillus kaustophilus HTA426) (protein)
chain: MTHRYDVAIVGGGVIGAAIGFELAKRRHRVAIFEKGTMGSGASSAAAGMLGAQSEFSTSSPLVPLALQSRALMPALAEELRERTGIDIGLVEKGLIKLATTEEEADDLYRHYTFWRGIGEPVQWLTKGEALEMEPRLAAEALAGAMYIPGDGQVSAPDLAAALAYAAASAGACLYEYTEVFDIRSDSSGHVLDTTGGTFAAEAVVIASGAWAARLGARVGLSLSVYPVKGECVMVRAPVPLLQTTVFAKNGCYIVPKSGNRLLIGATSTPGTFDRRVSAGGVMNLLHRAAHLVPDIEQAEWVASWSGIRPQTEDGLPYLGEHPERRGLFVAAGHYRNGILLSPLTGLLVADLVERKETAFDLAPFSLTRHIGKVGVE
On to B1, for which the Km in data set [1] was found to be 0.25 mM mM.

B2: Geobacillus kaustophilus HTA426 glycine oxidase variant V-GOX1, 251st glycine of SEQ ID NO: 1 substituted with glutamine (Gly251Gln; SEQ ID NO: 3 with Xaa251 = … (protein)
chain: MTHRYDVAIVGGGVIGAAIGFELAKRRHRVAIFEKGTMGSGASSAAAGMLGAQSEFSTSSPLVPLALQSRALMPALAEELRERTGIDIGLVEKGLIKLATTEEEADDLYRHYTFWRGIGEPVQWLTKGEALEMEPRLAAEALAGAMYIPGDGQVSAPDLAAALAYAAASAGACLYEYTEVFDIRSDSSGHVLDTTGGTFAAEAVVIASGAWAARLGARVGLSLSVYPVKGECVMVRAPVPLLQTTVFAKNQCYIVPKSGNRLLIGATSTPGTFDRRVSAGGVMNLLHRAAHLVPDIEQAEWVASWSGIRPQTEDGLPYLGEHPERRGLFVAAGHYRNGILLSPLTGLLVADLVERKETAFDLAPFSLTRHIGKVGVE
For the protein B2, in data set [2], the Km came to 0.20 mM mM.
